The values below come from PMC5779225.

B1: Frizzled3 (Fzd3): N42Q (protein)
parent chain: MAVSWIVFDLWLLTVFLGQIGGHSLFSCEPITLRMCQDLPYNTTFMPNLLNHYDQQTAALAMEPFHPMVNLDCSRDFRPFLCALYAPICMEYGRVTLPCRRLCQRAYSECSKLMEMFGVPWPEDMECSRFPDCDEPYPRLVDLNLVGDPTEGAPVAVQRDYGFWCPRELKIDPDLGYSFLHVRDCSPPCPNMYFRREELSFARYFIGLISIICLSATLFTFLTFLIDVTRFRYPERPIIFYAVCYMMVSLIFFIGFLLEDRVACNASSPAQYKASTVTQGSHNKACTMLFMVLYFFTMAGSVWWVILTITWFLAAVPKWGSEAIEKKALLFHASAWGIPGTLTIILLAMNKIEGDNISGVCFVGLYDVDALRYFVLAPLCLYVVVGVSLLLAGIISLNRVRIEIPLEKENQDKLVKFMIRIGVFSILYLVPLLVVIGCYFYEQAYRGIWETTWIQERCREYHIPCPYQVTQMSRPDLILFLMKYLMALIVGIPSIFWVGSKKTCFEWASFFHGRRKKEIVNESRQVLQEPDFAQSLLRDPNTPIIRKSRGTSTQGTSTHASSTQLAMVDDQRSKAGSVHSKVSSYHGSLHRSRDGRYTPCSYRGMEERLPHGSMSRLTDHSRHSSSHRLNEQSRHSSIRDLSNNPMTHITHGTSMNRVIEEDGTSA
B2: Frizzled3 (Fzd3): N356Q (protein)
parent chain: B1 parent chain
B3: Frizzled3 (Fzd3): 2NQ (protein)
parent chain: B1 parent chain

The nature of this series: surface biotinylation, NeutrAvidin pull-down, immunoblot. Conditions: glycan lost; control: wild type. (In western blotting, separated proteins are transferred to a membrane and probed.)
B1: the localisation_or_trafficking result is on record as “decreases”.

In the case of B2, the localisation_or_trafficking result was “abolishes”.

Regarding B3, the localisation_or_trafficking entry was “changes”.
